The source of these data is patent US20220127372A1.

B1: GPC3-SL-mCD3ε (protein)
chain: EVQLVQSGAEVKKPGASVKVSCKASGYTFSDYEMHWVRQAPGQGLEWMGAIHPGSGDTAYNQRFKGRVTITADKSTSTAYMELSSLRSEDTAVYYCARFYSYAYWGQGTLVTVSAGGGGSGGGGSGGGGSDIVMTQTPLSLPVTPGEPASISCRSSQSLVHSNGNTYLQWYLQKPGQSPQLLIYKVSNRFSGVPDRFSGSGSGTDFTLKISRVEAEDVGVYYCSQSIYVPYTFGQGTKLEIKRAAAGGGGSGGGGSGGGGSLEDDAENIEYKVSISGTSVELTCPLDSDENLKWEKNGQELPQKHDKHLVLQDFSEVEDSGYYVCYTPASNKNTYLYLKARVCEYCVEVDLTAVAIIIIVDICITLGLLMVIYYWSKNRKAKAKPVTRGTGAGSRPRGQNKERPPPVPNPDYEPIRKGQRDLYSGLNQRAV
B2: GPC3-SL-mCD3ε-F2A-mRunx3 (protein)
chain: EVQLVQSGAEVKKPGASVKVSCKASGYTFSDYEMHWVRQAPGQGLEWMGAIHPGSGDTAYNQRFKGRVTITADKSTSTAYMELSSLRSEDTAVYYCARFYSYAYWGQGTLVTVSAGGGGSGGGGSGGGGSDIVMTQTPLSLPVTPGEPASISCRSSQSLVHSNGNTYLQWYLQKPGQSPQLLIYKVSNRFSGVPDRFSGSGSGTDFTLKISRVEAEDVGVYYCSQSIYVPYTFGQGTKLEIKRAAAGGGGSGGGGSGGGGSLEDDAENIEYKVSISGTSVELTCPLDSDENLKWEKNGQELPQKHDKHLVLQDFSEVEDSGYYVCYTPASNKNTYLYLKARVCEYCVEVDLTAVAIIIIVDICITLGLLMVIYYWSKNRKAKAKPVTRGTGAGSRPRGQNKERPPPVPNPDYEPIRKGQRDLYSGLNQRAV
B3: GPC3-SL-mCD3ε-NFAT-mIL12 (protein)
chain: EVQLVQSGAEVKKPGASVKVSCKASGYTFSDYEMHWVRQAPGQGLEWMGAIHPGSGDTAYNQRFKGRVTITADKSTSTAYMELSSLRSEDTAVYYCARFYSYAYWGQGTLVTVSAGGGGSGGGGSGGGGSDIVMTQTPLSLPVTPGEPASISCRSSQSLVHSNGNTYLQWYLQKPGQSPQLLIYKVSNRFSGVPDRFSGSGSGTDFTLKISRVEAEDVGVYYCSQSIYVPYTFGQGTKLEIKRAAAGGGGSGGGGSGGGGSLEDDAENIEYKVSISGTSVELTCPLDSDENLKWEKNGQELPQKHDKHLVLQDFSEVEDSGYYVCYTPASNKNTYLYLKARVCEYCVEVDLTAVAIIIIVDICITLGLLMVIYYWSKNRKAKAKPVTRGTGAGSRPRGQNKERPPPVPNPDYEPIRKGQRDLYSGLNQRAV
B4: GPC3-SL-mCD3ε-F2A-mCCL21b (protein)
chain: EVQLVQSGAEVKKPGASVKVSCKASGYTFSDYEMHWVRQAPGQGLEWMGAIHPGSGDTAYNQRFKGRVTITADKSTSTAYMELSSLRSEDTAVYYCARFYSYAYWGQGTLVTVSAGGGGSGGGGSGGGGSDIVMTQTPLSLPVTPGEPASISCRSSQSLVHSNGNTYLQWYLQKPGQSPQLLIYKVSNRFSGVPDRFSGSGSGTDFTLKISRVEAEDVGVYYCSQSIYVPYTFGQGTKLEIKRAAAGGGGSGGGGSGGGGSLEDDAENIEYKVSISGTSVELTCPLDSDENLKWEKNGQELPQKHDKHLVLQDFSEVEDSGYYVCYTPASNKNTYLYLKARVCEYCVEVDLTAVAIIIIVDICITLGLLMVIYYWSKNRKAKAKPVTRGTGAGSRPRGQNKERPPPVPNPDYEPIRKGQRDLYSGLNQRAV
B5: GPC3-SL-mCD3ε-F2A-mIL7-P2A-mCCL21b (protein)
chain: EVQLVQSGAEVKKPGASVKVSCKASGYTFSDYEMHWVRQAPGQGLEWMGAIHPGSGDTAYNQRFKGRVTITADKSTSTAYMELSSLRSEDTAVYYCARFYSYAYWGQGTLVTVSAGGGGSGGGGSGGGGSDIVMTQTPLSLPVTPGEPASISCRSSQSLVHSNGNTYLQWYLQKPGQSPQLLIYKVSNRFSGVPDRFSGSGSGTDFTLKISRVEAEDVGVYYCSQSIYVPYTFGQGTKLEIKRAAAGGGGSGGGGSGGGGSLEDDAENIEYKVSISGTSVELTCPLDSDENLKWEKNGQELPQKHDKHLVLQDFSEVEDSGYYVCYTPASNKNTYLYLKARVCEYCVEVDLTAVAIIIIVDICITLGLLMVIYYWSKNRKAKAKPVTRGTGAGSRPRGQNKERPPPVPNPDYEPIRKGQRDLYSGLNQRAV

This assay addresses mouse GPC3 protein (mouse) (UniProt Q8CFZ4). The assay is described as follows: cell-based or functional assay.
Sequence of UniProt Q8CFZ4 (Q8CFZ4 25-579 limits assumed): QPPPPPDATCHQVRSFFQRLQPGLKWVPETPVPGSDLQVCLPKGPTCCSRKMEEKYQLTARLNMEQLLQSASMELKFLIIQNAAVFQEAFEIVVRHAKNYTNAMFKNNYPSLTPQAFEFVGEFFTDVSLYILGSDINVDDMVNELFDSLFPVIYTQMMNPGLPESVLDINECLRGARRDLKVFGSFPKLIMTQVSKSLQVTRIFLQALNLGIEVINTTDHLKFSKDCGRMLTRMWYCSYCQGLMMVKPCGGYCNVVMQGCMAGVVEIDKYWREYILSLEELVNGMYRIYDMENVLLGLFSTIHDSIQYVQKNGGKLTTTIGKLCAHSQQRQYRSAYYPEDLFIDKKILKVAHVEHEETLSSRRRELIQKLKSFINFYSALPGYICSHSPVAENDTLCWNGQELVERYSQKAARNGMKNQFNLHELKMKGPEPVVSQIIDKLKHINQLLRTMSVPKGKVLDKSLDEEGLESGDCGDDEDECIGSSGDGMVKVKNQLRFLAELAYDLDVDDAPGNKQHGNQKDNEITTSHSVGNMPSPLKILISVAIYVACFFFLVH
Take B1: the cytotoxicity to Hepa 1-6 GPC3 cells, effector target ratio 1:1, 18 h (CytoTox 96) amounted to 70.7%.

Regarding B2, the cytotoxicity to Hepa 1-6 GPC3 cells, effector target ratio 1:1, 18 h (CytoTox 96) was found to be 82.2%. Under B3 stands 91.5%; under B4, 73.2%; under B5, 73.4%.
